{
  "source": "patent US20260231954A1",
  "about": "“PESTICIDAL ENZYMES FOR USE ON NEMATODES, INSECTS, AND MOLLUSKS” (priority 2023, published 2026)",
  "molecules": {"B1": {"name": "Bacillus thuringiensis Lipase 2 (SEQ ID NO: 251): Bacillus thuringiensis Lipase 2 (protein, listed as Bacillus thuringiensis)", "chain": "EVVKELGKGFPDTEVFTPGEWFLGQKPANYDENKPPILFVQGRNGNADSWYGKTVYHDINDMYDYALKAGYQTVFIQLYDAAGKGSASQWDNGKLLAQKLEEIYNYFGKKVNIVAHSKGGIDTQAALVEYGANRFVGNVITLATPHHGSNLADLSYSWWAGWLASILGQKDDGTYSLQIGEMAKFRSIIDNNPAAKLNRYYTATGTSWGPTFSALSMGGLYLSSYGSNDGLVNEWSAKLSYGTHLFTDSRFDHDNIRKGSAVFARIEPYLRTTNVGLPALVASSTSSNEDLEQLNTTSNQNILGGELPQNQWIEQSISVDKKAEGIVSVLTASSDVEVQMVSPKGKIYANKDSAITTGEGESFFNRATIRTFKFDKLEVGEWKIKMMAKQSKDAYLVVSDYKDDAPFVLRMPTKVKINKPEYKLKKSPVAPEMKGDLSITVRVVNKEGKLVSEFNELQNVNTNTFTGALKDIKQPGVYNVTMDIKGMNKEGKPYNRTIVKSVYVEK"}, "B2": {"name": "Lipase (SEQ ID NO: 76): Recombinant lipase from Bacillus thuringiensis; Bacillus thuringiensis Lipase (Lip1) (protein, listed as Bacillus thuringiensis)", "chain": "MRLMRRCVALLIVFFIMAPMISTNVRAGVVKELKTGFPDQEVFTPGEWFLGQKPANYDENKPPILFVQGRNGNADSWYGKTVYHDINDMYDYALKAGYQTVFIQLYDAAGKGSASQWDNGKLLAQKLEEIYNHFGKKVNIVAHSKGGIDTQAALVGYGANRFVGNVITLATPHHGSNLADLSYSWWAGWLASILGQKDDGTYSLQMGEMAKFRSTIDNNPAAKLNRYYTVTGTSWGPVFSALSMGGLYLSSYGSNDGLVNECSAKLPYGTHLFTDSRFDHDNIRKGSAVFARIEPYLRTANVPVPALVASSTSSNENIEQLNTTSNQSILGGELPQNQWIEQTVAVDKKAEGIVSILTASSDVEVQMISPKGKVYTNKDSVITTGEGESFFGGATIRTFKFDKMDVGEWKVKMMTKQSKDAYLVVSDYKTGAPFVLQMPTKVKANKSEYKLKKSPVAPEMKGDLSITVRVVNKEGKLVSEFNELQNVNNNTFTGALKNIKQPGVYNVTMDIKGMNKEGKSYSRTIVKSVYVEK", "modifications": "Lipase (Lip1 H192)"}, "B3": {"name": "Collagenase B (SEQ ID NO: 208): Bacillus pumulis Collagenase B (ColB) (protein, listed as Bacillus pumulis, listed as Bacillus pumilus)", "chain": "IVNGKRVITKKPELLAPAGNLEKLKIAVHYGADAVFIGGQEYGLRSNADNFTIEEIAEGVEFAKKYGAKIYVTTNIFAHNENMDGLEDYLKALGDANVAGIIVADPLIIETCRRVAPNVEVHLSTQQSLSNWKAVQFWKEEGLDRVVLARETSALEIREMKEKVDIEIESFIHGAMCIAYSGRCVLSNHMTARDSNRGGCCQSCRWDYDLYQTDGANAVALYGEEDAPFAMSPKDLKLIESIPKMIEMGIDSLKIEGRMKSIHYVATVVSVYRKVIDAYCADPENFVIQKEWLEELDKCANRDTATAFFEGTPGYEEQMFGEHAKKTTYDFVGLVLNYDEDTQMVTLQQRNFFKKGDEVEFFGPEIENFTHTIETIWDEDGNELDAARHPLQIVKFKLDKKIYPSNMMRKGK", "modifications": "Collagenase B (ColB)"}, "B4": {"name": "Pseudomonas sp. esterase (SEQ ID NO: 248): Pseudomonas sp. Esterase (protein, listed as Pseudomonas sp.)", "chain": "MTEPLILQPVKPADACVIWLHGLGADRYDFLPVAEALQEILLSTRFVLPQAPTRPVTINGGYAMPSWYDIKAMSPARAIDRDELEASADRIIELIEEQRSSGIDASRIFLAGFSQGGAVVYHTAFLKWQGPLGGVLALSTYAPTFSDELELSASQQRIPVLSLHGQFDNVVQNSMGRTAYEYLKAHGVTVTWQEYPMEHEVLPEEIRDIGTWLSERLR"}},
  "key": {"[1]": {"system": "soybean cyst nematode (SCN, Heterodera glycines)", "experiment": "Soybean cyst nematode reproduction on soybean after seed treatment, controlled environment (cysts per gram of root tissue or per plant)", "assay_type": "in vivo", "settings": "for % Comparison to Control (figure in parentheses): change vs base control; for Average cysts per g of root tissue: soybean 2830E3"}, "[2]": {"system": "Diamondback moth (Plutella xylostella)", "experiment": "Diet-surface overlay (DSO) bioassay on Diamondback moth", "assay_type": "in vivo", "settings": "7 days", "procedure": "(§1) Diet-surface overlay bioassays are conducted with artificial diet mixes without antibiotics in 1.5 cm^2 cell bioassay trays(s). Artificial diets are commercially available from Southland Products Inc. Diets were prepared by dispersing 0.5 mL of molten diet to each 1.5 cm^2 cell. After solidification, 0.1 mL enzyme treatments were dispersed on top of diet in each cell and the tray was gently rocked in an orbital shaker to spread the liquid uniformly over the diet surface. Trays were placed under clean airflow until the surface of each cell was uniformly dried. One or two 16-cell sections were used per treatment (the number in larvae treated was 16 or 32).\n(§2) One healthy first instar larva was placed into each treatment cell, each 16-cell section was covered with a re-sealable lid and incubated at 27° C. and light-dark period of 16:8 hrs. After 7 days, and according to the species, the number of individuals in the following developmental categories was recorded.\n(§3) Diamondback moth (Plutella xylostella): Dead Larva (lack of movement), Larva Stage I (≤50% relative size), Larva Stage II (100% relative size, full size), Early Pupa (light green color), Late Pupa (light-dark brown color), and Adult.\n(§4) Negative/untreated controls were treated with filtered water and positive controls were treated with lethal doses of Bacillus thuringiensis subsp. Kurstaki (Btk) spores at 1000 ppm."}, "[3]": {"system": "Btk resistant Diamondback moth", "experiment": "Diet-surface overlay (DSO) bioassay on Btk resistant Diamondback moth", "assay_type": "in vivo, Plutella xylostella", "settings": "7 days", "procedure": "as §1, §2, §3, §4\nHowever, both neutral proteases reduced the number of individuals reaching adult stage.\nThe effect of lipase (10× enzyme rate) and free lipases were tested on a Diamondback Moth Btk resistant strain. Free Lipases from Burkholderia cepacia (Bc) and Pseudomonas fluorescens (Pf) were tested along with Lipase (SEQ ID NO: 76) and the results are shown below in Table 45."}, "[4]": {"system": "SCN juveniles (SCN HG type 1.2.5.7, race 2)", "experiment": "In-vitro plate assay of SCN juvenile viability (difference in percent death)", "assay_type": "in vivo", "settings": "Table 32, 40 μL per well of each treatment, water only 4%", "procedure": "(§5) SCN eggs were obtained from SCN HG type 1.2.5.7, race 2. Eggs were rinsed 4 times with sterile water. Eggs were transferred to a 6-well plate and resuspended in 5 mL of 3 mM ZnSO4. The plate was sealed with parafilm, covered with aluminum foil to prevent light from entering the plate, and placed in a plate growth chamber at 25° C. and 80% relative humidity. After 6-7 days of incubation, an estimate of hatched SCN juveniles was obtained from the well to determine the overall number of juveniles per 10 μL. The concentration of the hatchery solution was adjusted until it consisted of 20-30 juveniles per 10 μL.\nPotato dextrose agar media containing chloramphenicol and chlortetracycline was prepared and added to sterile twenty-four-well cell culture plates (1 mL per well). The plates were divided according to the pre-determined N-value for each treatment (N=12-24). Each treatment being tested was added to the agar surface within each well at a rate of 40 μL per well. Without allowing the treatments to dry, 10 μL of the prepared nematode mixture was added to the agar surface within each well.\nTo quantify the treatments' effects on nematode viability, the nematodes were examined under a dissecting microscope at 20× magnification. Initial (TO) values for the number of live juveniles, number of dead juveniles and total number of juveniles were recorded immediately after preparation of each well. The plates were then wrapped in parafilm around the open edge, encased in aluminum foil, and placed in secondary containment. The secondary containment was placed in a plant growth chamber at 25° C. and 80% relative humidity. At approximately 24 hours post addition of juveniles, the plates were evaluated, and the number of live juveniles, dead juveniles and total number of juveniles were recorded (T24).\nThe difference in percent death at T0 vs T24 was calculated by subtracting the percent dead at TO [(#dead juveniles/total #juveniles)×100] from the percent dead at T24 [(#dead juveniles/#total juveniles originally present)×100]. […] If the ANOVA indicated a significant difference existed among treatments, Tukey's HSD post hoc test was used to perform a pairwise contrast between each set of treatments. Different letters denote statistically significant results at P<0.05.\nas §5, with “from” for “from SCN”, “rinsed four” for “rinsed 4”, “and 80-90%” for “and 80%”, “from each” for “from the”\nPotato dextrose agar media containing chloramphenicol and chlortetracycline was prepared and added to sterile twenty-four-well cell culture plates (1 mL per well). The plates were divided according to the pre-determined N-value for each treatment (N=24). […]\nTo quantify the treatments' effects on nematode viability, the nematodes were examined under a dissecting microscope at 20× magnification. Initial (TO) values for the number of live juveniles, number of dead juveniles and total number of juveniles were recorded. […]"}, "[5]": {"settings": "Table 44, number of individuals, n = 16"}, "[6]": {"settings": "Table 45, number of individuals, n = 32"}},
  "data": [
    {"molecule": "B1", "values": [
      {"measurement": "% Comparison to Control (figure in parentheses)", "setting": "[1]; Table 20", "value": "−43", "unit": "%"},
      {"measurement": "Average cysts per g of root tissue", "setting": "[1]; Table 20, free enzyme seed treatment", "value": "264.3 cysts per g of root tissue"}
    ]},
    {"molecule": "B2", "values": [
      {"measurement": "Effect on survival and development of Diamondback moth (in words)", "setting": "[2]; DSO bioassay", "value": "delayed larva-pupa development"},
      {"measurement": "Dead Larva", "setting": "[2]; Table 44, lipases, number of individuals, n = 16", "value": 0},
      {"measurement": "Adult", "setting": "[2]; [5]", "value": 0},
      {"measurement": "Early Pupa", "setting": "[2]; [5]", "value": 3},
      {"measurement": "Larva Stage I", "setting": "[2]; [5]", "value": 0},
      {"measurement": "Larva Stage II", "setting": "[2]; [5]", "value": 0},
      {"measurement": "Late Pupa", "setting": "[2]; [5]", "value": 13},
      {"measurement": "Effect on survival and development of Btk resistant Diamondback moth (in words)", "setting": "[3]; DSO bioassay", "value": "clear delay of larva-pupa development"},
      {"measurement": "Dead Larva", "setting": "[3]; Table 45, lipases, number of individuals, n = 32, Btk resistant strain per text", "value": 1},
      {"measurement": "Adult", "setting": "[3]; [6]", "value": 0},
      {"measurement": "Early Pupa", "setting": "[3]; [6]", "value": 10},
      {"measurement": "Larva Stage I", "setting": "[3]; [6]", "value": 9},
      {"measurement": "Larva Stage II", "setting": "[3]; [6]", "value": 12},
      {"measurement": "Late Pupa", "setting": "[3]; [6]", "value": 0}
    ]},
    {"molecule": "B3", "values": [
      {"measurement": "% Comparison to Control (figure in parentheses)", "setting": "[1]; Table 22", "value": "−85", "unit": "%"},
      {"measurement": "Average cysts per g of root tissue", "setting": "[1]; Table 22, free enzyme seed treatment", "value": "70.9 cysts per g of root tissue"}
    ]},
    {"molecule": "B4", "values": [
      {"measurement": "Difference in Percent Death of Nematodes for 0 to 24 Hours", "setting": "[4]", "value": 22, "unit": "%"},
      {"measurement": "Difference in Percent Death of Nematodes for 0 to 24 Hours", "setting": "[4]; listed as Pseudomonas sp. esterase free enzyme (SEQ ID NO: 248)", "value": 22, "unit": "%"},
      {"measurement": "% Comparison to Control (figure in parentheses)", "setting": "[1]; Table 16", "value": "−10", "unit": "%"},
      {"measurement": "Average cysts per g of root tissue", "setting": "[1]; Table 16, free enzyme or 4x concentrate seed treatment", "value": "220.2 cysts per g of root tissue"}
    ]}
  ]
}
